# Source: IntAct's records for PubMed 18319344
# B1: PTS system glucose-specific EIICB component (Escherichia coli (strain K12)), P69786 (parent)
# chain: MFKNAFANLQKVGKSLMLPVSVLPIAGILLGVGSANFSWLPAVVSHVMAEAGGSVFANMPLIFAIGVALGFTNNDGVSALAAVVAYGIMVKTMAVVAPLVLHLPAEEIASKHLADTGVLGGIISGAIAAYMFNRFYRIKLPEYLGFFAGKRFVPIISGLAAIFTGVVLSFIWPPIGSAIQTFSQWAAYQNPVVAFGIYGFIERCLVPFGLHHIWNVPFQMQIGEYTNAAGQVFHGDIPRYMAGDPTAGKLSGGFLFKMYGLPAAAIAIWHSAKPENRAKVGGIMISAALTSFLTGITEPIEFSFMFVAPILYIIHAILAGLAFPICILLGMRDGTSFSHGLIDFIVLSGNSSKLWLFPIVGIGYAIVYYTIFRVLIKALDLKTPGREDATEDAKATGTSEMAPALVAAFGGKENITNLDACITRLRVSVADVSKVDQAGLKKLGAAGVVVAGSGVQAIFGTKSDNLKTEMDEYIRNH
# partner: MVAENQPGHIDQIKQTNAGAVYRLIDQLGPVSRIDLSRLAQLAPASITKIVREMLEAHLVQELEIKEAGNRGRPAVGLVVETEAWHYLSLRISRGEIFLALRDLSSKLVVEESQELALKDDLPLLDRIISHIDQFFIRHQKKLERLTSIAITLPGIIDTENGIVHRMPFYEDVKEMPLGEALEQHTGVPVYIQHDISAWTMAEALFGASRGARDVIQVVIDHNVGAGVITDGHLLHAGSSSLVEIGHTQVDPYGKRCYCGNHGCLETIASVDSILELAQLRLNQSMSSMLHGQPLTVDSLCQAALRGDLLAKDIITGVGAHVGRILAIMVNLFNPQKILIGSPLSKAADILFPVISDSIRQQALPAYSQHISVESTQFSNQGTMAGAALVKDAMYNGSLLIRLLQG
# Variants of: B1
# Details: with mlc_ecoli mlc
row,Variant,effect of a mutation on the interaction
1,Q456A,disrupting interaction
2,A451F,decreasing interaction
3,V449Q,disrupting interaction
